The subject of data set [1] is Cys24. The experiment in a line: UV-vis. The settings on record: 10 °C; poly-buffer: 10 mM sodium acetate, 10 mM sodium phosphate, 10 mM sodium borate, 10 mM sodium citrate, starting pH 9.4, titrated with 100 mM HCl; 20 μM protein; reduced protein, referenced to the oxidized protein (Cys mutants oxidized with tenfold excess H2O2); no ligand.
The subject of data set [2] is Cys21. Kind of data set: UV-vis. To be noted: 10 °C; poly-buffer: 10 mM sodium acetate, 10 mM sodium phosphate, 10 mM sodium borate, 10 mM sodium citrate, starting pH 9.4, titrated with 100 mM HCl; 20 μM protein; reduced protein, referenced to the oxidized protein (Cys mutants oxidized with tenfold excess H2O2); no ligand.
The target in data set [3] is T1, NCgl2478 (Corynebacterium glutamicum, UniProt Q8NMK6, C24S).
T1 construct: gene Cgl2567; full-length, N-terminal His6 from pET28a, E. coli BL21(DE3); tag cut with enterokinase for activity assays
T1 sequence (Q8NMK6 1-245 C24S): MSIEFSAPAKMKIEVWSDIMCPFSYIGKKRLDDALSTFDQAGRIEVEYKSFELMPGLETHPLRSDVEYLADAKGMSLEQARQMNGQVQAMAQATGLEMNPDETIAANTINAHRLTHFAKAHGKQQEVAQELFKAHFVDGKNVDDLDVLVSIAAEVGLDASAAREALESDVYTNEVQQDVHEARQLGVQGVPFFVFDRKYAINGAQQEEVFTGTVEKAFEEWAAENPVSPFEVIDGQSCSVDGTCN
The experiment in a line: NBD-Cl labelling and DTNB thiol count after H2O2 with MSH. It is filed as binding. The settings on record: covalent; mixed disulfide at Cys21 formed from the H2O2-oxidised sulfenic acid.

Substrate in data set [4]: CC(=O)N[C@@H](CSSCCO)C(=O)N[C@H]1[C@@H](O[C@@H]2[C@H](O)[C@H](O)[C@@H](O)[C@H](O)[C@H]2O)O[C@H](CO)[C@@H](O)[C@@H]1O
Kind of data set: purified protein. It is filed as biochemical, Corynebacterium glutamicum. The settings on record: 500 μM MSH, 5 μM Mtr, 250 μM NADPH, 50 mM potassium phosphate pH 7.6, 25 °C, substrate formed in situ from HED and MSH.

As usually defined, the pKa is the negative logarithm of the acid dissociation constant. By Km is commonly meant the concentration of substrate that gives half-maximal velocity. A word on the kcat: it is the number of substrate molecules converted per active site and unit of time at saturation.

As to “NCgl2478 (DsbA-like mycoredoxin / mycothiol-dependent thiol-disulfide reductase, annotated dithiol-disulfide isomerase DsbA) (Corynebacterium glutamicum (RES167, derived from ATCC 13032))”, the pKa in data set [1] is given as 8.09; in data set [2] it was “less than 6”.

For `CC(=O)N[C@@H](CS)C(=O)NC1[C@@H](O[C@@H]2[C@H](O)[C@H](O)[C@@H](O)[C@H](O)[C@H]2O)O[C@H](CO)[C@@H](O)[C@@H]1O` (stereo partly drawn) [MSH, 1D-myo-inosityl-2-[N-acetyl-L-cysteinyl] amido-2-deoxy-α-D-glucopyranoside], in data set [3], the “NBD-Cl labelling and DTNB thiol count after H2O2 with MSH” value was “MSH reacted with NCgl2478:C24S–SOH to form NCgl2478:C24S–SSM”.

B1: Mrx1 (Corynebacterium glutamicum ATCC 13032) (protein)
chain: MSNVTIYATDWCPYCRSLLKGLDGQEYDLIDVDQDEEAGEWVKSVNDGNRIVPTVRYSDGTHATNPLAAEVIAKIEALA
notes: pET28a-mrx1, N-terminal His6, E. coli BL21(DE3); tag cut for activity assays
B1: in data set [4], the Km was determined as 540 ± 110 µM and the kcat was determined as 103.81 ± 3.14 s⁻¹.

B2: NCgl2478 (Corynebacterium glutamicum ATCC 13032) (protein)
chain: MSIEFSAPAKMKIEVWSDIMCPFCYIGKKRLDDALSTFDQAGRIEVEYKSFELMPGLETHPLRSDVEYLADAKGMSLEQARQMNGQVQAMAQATGLEMNPDETIAANTINAHRLTHFAKAHGKQQEVAQELFKAHFVDGKNVDDLDVLVSIAAEVGLDASAAREALESDVYTNEVQQDVHEARQLGVQGVPFFVFDRKYAINGAQQEEVFTGTVEKAFEEWAAENPVSPFEVIDGQSCSVDGTCN
notes: full-length, N-terminal His6 from pET28a, E. coli BL21(DE3); tag cut with enterokinase for activity assays
Turning to B2, in data set [4], the Km turned out to be 510 ± 50 µM and the turnover number (kcat) came out at 8.55 ± 0.19 s⁻¹.

B3: NCgl2478 (Corynebacterium glutamicum ATCC 13032; C24S) (protein)
chain: MSIEFSAPAKMKIEVWSDIMCPFSYIGKKRLDDALSTFDQAGRIEVEYKSFELMPGLETHPLRSDVEYLADAKGMSLEQARQMNGQVQAMAQATGLEMNPDETIAANTINAHRLTHFAKAHGKQQEVAQELFKAHFVDGKNVDDLDVLVSIAAEVGLDASAAREALESDVYTNEVQQDVHEARQLGVQGVPFFVFDRKYAINGAQQEEVFTGTVEKAFEEWAAENPVSPFEVIDGQSCSVDGTCN
notes: as for B2
For the molecule B3, in data set [4], the Michaelis constant (Km) came to 460 ± 50 µM and the catalytic constant (kcat) was determined as 11.37 ± 0.31 s⁻¹.
